{"source": "paper PMC8067585", "target": "CePoFUT1 single mutant M172C, singly labelled with ATTO488 or ATTO647N (Caenorhabditis elegans) (UniProt Q18014)", "assay": "single-molecule fluorescence coincidence (dual-colour PIE); CePoFUT1-A488 and CePoFUT1-A647N incubated 1:1 at 1 uM for 30 min in 10 mM Tris, 1 mM EDTA, 0.005% Tween 20, pH 8.5, diluted to 40 pM; substrates at 15-fold molar excess where added; monomer to dimer"}
{"substance": "CePoFUT1 single mutant M172C, singly labelled with ATTO488 or ATTO647N (from UniProt Q18014 26-383) (enzyme)", "values": [{"measurement": "percent dimers (free form)", "value": 6.2, "unit": "%"}, {"measurement": "percent dimers (with GDP and HsEGF11-12-13)", "value": 4.6, "unit": "%"}, {"measurement": "percent dimers (with HsEGF11-12-13)", "value": 6.7, "unit": "%"}, {"measurement": "percent dimers (with HsEGF12)", "value": 6.8, "unit": "%"}, {"measurement": "percent of total protein in a dimeric state", "value": "4 to 6", "unit": "%"}, {"measurement": "stoichiometry N", "value": 2}]}
